Data taken from paper PMC4394031 (Structure (London, England : 1993), 2015).
Blank lines part the entries; values can stand above or below the binder they belong to.

Assays:
[1] = target: T1, Human Nrp2-b1b2 (Neuropilin-2 domains b1b2, residues 276–595) (human, UniProt O60462 276-595); test: differential scanning fluorimetry
T1 sequence (looked up): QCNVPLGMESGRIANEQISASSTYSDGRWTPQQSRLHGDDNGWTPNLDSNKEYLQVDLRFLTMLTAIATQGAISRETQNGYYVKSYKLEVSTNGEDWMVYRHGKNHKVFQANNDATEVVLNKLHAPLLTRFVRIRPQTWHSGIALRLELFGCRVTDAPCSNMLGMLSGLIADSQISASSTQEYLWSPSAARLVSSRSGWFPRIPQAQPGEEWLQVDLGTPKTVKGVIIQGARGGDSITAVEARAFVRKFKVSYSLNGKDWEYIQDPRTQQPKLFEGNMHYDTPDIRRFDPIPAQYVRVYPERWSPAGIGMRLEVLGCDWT

[2] = target: T2, AP-VEGF-C (alkaline phosphatase-tagged VEGF-C, residues 108–223) (UniProt P97953 108-223); test: plate competition assay with AP-tagged ligand
T2 sequence (looked up): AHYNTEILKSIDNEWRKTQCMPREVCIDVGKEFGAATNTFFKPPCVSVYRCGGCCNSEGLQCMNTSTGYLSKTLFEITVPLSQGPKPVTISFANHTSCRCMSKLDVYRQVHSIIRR

crystal structure = target: the molecule itself; test: crystal structure
[3] = target: T1, Human Nrp2-b1b2 (Neuropilin-2 domains …); test: plate competition assay with AP-tagged ligand
[4] = target: T1, Human Nrp2-b1b2 (Neuropilin-2 domains …); test: crystal structure

- Kd [1]: 199 µM
Binder: WRQVHSIIRR [processed VEGF-C C-terminus peptide (215-RQVHSIIRR-223)]
- Tm of Nrp2-b1b2 with 0.5 mM peptide (48.8°C without) [1]: 50.3 °C

- IC50 [2]: 1.5 µM
B1: human Nrp2-b1 (residues 276–430) (domain or fragment, UniProt O60462 276-430, looked up)
chain: QCNVPLGMESGRIANEQISASSTYSDGRWTPQQSRLHGDDNGWTPNLDSNKEYLQVDLRFLTMLTAIATQGAISRETQNGYYVKSYKLEVSTNGEDWMVYRHGKNHKVFQANNDATEVVLNKLHAPLLTRFVRIRPQTWHSGIALRLELFGCRVT

B2: Nrp2-b1b2/VEGF-C fusion (human Nrp2 residues 276–595 with VEGF-C 219-SIIRR-223 fused to its C-terminus) (other)
chain: QCNVPLGMESGRIANEQISASSTYSDGRWTPQQSRLHGDDNGWTPNLDSNKEYLQVDLRFLTMLTAIATQGAISRETQNGYYVKSYKLEVSTNGEDWMVYRHGKNHKVFQANNDATEVVLNKLHAPLLTRFVRIRPQTWHSGIALRLELFGCRVTDAPCSNMLGMLSGLIADSQISASSTQEYLWSPSAARLVSSRSGWFPRIPQAQPGEEWLQVDLGTPKTVKGVIIQGARGGDSITAVEARAFVRKFKVSYSLNGKDWEYIQDPRTQQPKLFEGNMHYDTPDIRRFDPIPAQYVRVYPERWSPAGIGMRLEVLGCDWTSIIRR
- binding result (crystal structure): binds

- IC50 [3]: 10 µM
Binder: ATWLPPR [ATWLPPR, an optimized peptide inhibitor of Nrp]

- binding result [4]: binds
Binder: SIIRR [VEGF-C C-terminus (219-SIIRR-223), the C-terminal five amino acids of mature VEGF-C]
